Consider one substance from article PMC9886862.

This test has as its target HoxG, large subunit of the membrane-bound [NiFe]-hydrogenase (MBH) from Cupriavidus necator, isolated, with N-terminal Strep-tag II (Cupriavidus necator) (UniProt P31891). The experiment in a line: SEC; HoxG at higher concentrations (series 0.5, 2.5, 12.5 and 60 mg/ml); Superdex 200 Increase 10/300 GL; 50 mM KiPO4, 150 mM NaCl, pH 7.4, 4 °C; sizes from a calibration curve of reference proteins.

As for “HoxG, large subunit of the membrane-bound [NiFe]-hydrogenase (MBH) from Cupriavidus necator, isolated, with N-terminal Strep-tag II (from UniProt P31891 1-618) (natural protein)”, the stoichiometry N came to 2.

Broadly, the stoichiometry N is the number of molecules, sites or subunits per partner or assembly.
